The source of these data is paper PMC6535971 (ACS Central Science, 2019).

Where no end group is shown, it is not given here. Bounds are passed on as bounds.

The target in assay [1] is Methanocaldococcus jannaschii YcaO (MjYcaO), wild type (Methanocaldococcus jannaschii) (UniProt Q58494). Kind of assay: fluorescence polarisation. A general note: Fluorescence polarisation rises when a labelled molecule tumbles more slowly, as on binding a larger partner.
The target of assay [2] is T1, MjYcaO (Methanocaldococcus jannaschii, UniProt Q58494).
T1 sequence (Q58494 1-385): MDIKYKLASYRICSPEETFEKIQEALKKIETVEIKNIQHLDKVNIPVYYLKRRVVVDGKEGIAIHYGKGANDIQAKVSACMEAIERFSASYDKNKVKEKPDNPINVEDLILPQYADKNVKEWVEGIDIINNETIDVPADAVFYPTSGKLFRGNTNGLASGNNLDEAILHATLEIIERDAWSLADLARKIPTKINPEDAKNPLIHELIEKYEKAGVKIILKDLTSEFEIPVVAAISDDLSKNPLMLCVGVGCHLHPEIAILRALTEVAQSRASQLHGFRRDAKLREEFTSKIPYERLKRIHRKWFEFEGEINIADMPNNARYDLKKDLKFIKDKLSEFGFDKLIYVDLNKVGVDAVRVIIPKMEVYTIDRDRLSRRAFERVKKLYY
Kind of assay: Competition FP binding assay. The following applies: competitive FP, MBP-tagged 11-mer variant against FITC-labeled 11-mer peptide.

A further assay has as its system MkYcaO. Briefly: Cyclodehydration reaction, MALDI-TOF-MS. It is filed as biochemical, Methanopyrus kandleri. The following applies: pH 7.0 with additional phosphate.
In assay [3] the target is T1, MjYcaO. Kind of assay: Cyclodehydration reaction, MALDI-TOF-MS. It is filed as biochemical. The following applies: wild-type MjYcaO and ATP at pH 7.5, no added anion.
For assay [4], the target named is T2, Methanocaldococcus jannaschii YcaO (MjYcaO), wild type (Methanocaldococcus jannaschii, UniProt Q58494 1-385).
T2 sequence: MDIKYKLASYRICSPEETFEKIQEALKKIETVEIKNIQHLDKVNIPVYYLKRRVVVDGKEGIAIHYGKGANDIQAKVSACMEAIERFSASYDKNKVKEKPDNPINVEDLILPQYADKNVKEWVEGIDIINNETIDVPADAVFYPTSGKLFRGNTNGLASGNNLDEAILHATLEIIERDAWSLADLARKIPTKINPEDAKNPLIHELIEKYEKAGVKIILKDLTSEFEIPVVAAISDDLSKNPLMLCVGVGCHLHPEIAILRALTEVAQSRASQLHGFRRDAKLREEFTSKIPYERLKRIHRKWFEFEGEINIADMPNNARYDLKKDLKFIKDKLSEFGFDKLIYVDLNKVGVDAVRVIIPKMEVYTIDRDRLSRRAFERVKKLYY
Briefly: crystal structure.

The target in assay [5] is T2, Methanocaldococcus jannaschii YcaO …. Kind of assay: fluorescence polarisation.
Assay [6] has the same target. Briefly: fluorescence polarisation. This is another data set of the same source.
Another assay has as its target T3, MjYcaO Y66L variant (Methanocaldococcus jannaschii, UniProt Q58494 1-385, Y66L).
T3 sequence: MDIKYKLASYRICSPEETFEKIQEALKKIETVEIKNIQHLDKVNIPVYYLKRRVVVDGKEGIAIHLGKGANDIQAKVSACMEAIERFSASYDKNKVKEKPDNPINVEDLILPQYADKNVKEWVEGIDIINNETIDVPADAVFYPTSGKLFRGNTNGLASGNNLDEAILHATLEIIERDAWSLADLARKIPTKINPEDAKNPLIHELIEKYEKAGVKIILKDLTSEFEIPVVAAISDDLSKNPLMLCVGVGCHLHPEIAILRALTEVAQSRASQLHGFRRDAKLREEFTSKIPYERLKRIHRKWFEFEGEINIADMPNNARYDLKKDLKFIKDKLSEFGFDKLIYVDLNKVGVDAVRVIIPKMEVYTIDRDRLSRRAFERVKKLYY
Briefly: fluorescence polarisation.

For the next assay, the target named is T4, MjYcaO W303A variant (Methanocaldococcus jannaschii, UniProt Q58494 1-385, W303A).
T4 sequence: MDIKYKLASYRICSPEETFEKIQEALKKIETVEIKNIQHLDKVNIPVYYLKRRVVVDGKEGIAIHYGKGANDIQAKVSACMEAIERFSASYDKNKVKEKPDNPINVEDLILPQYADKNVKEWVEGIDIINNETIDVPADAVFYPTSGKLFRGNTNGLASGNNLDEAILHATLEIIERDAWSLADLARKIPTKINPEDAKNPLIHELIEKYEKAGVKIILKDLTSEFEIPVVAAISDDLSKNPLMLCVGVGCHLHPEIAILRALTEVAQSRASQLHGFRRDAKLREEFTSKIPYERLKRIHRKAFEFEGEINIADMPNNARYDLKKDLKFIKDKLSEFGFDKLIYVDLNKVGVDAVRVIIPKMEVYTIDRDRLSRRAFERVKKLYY
Briefly: fluorescence polarisation.

The target in a further assay is T5, MjYcaO W180F variant (Methanocaldococcus jannaschii, UniProt Q58494 1-385, W180F).
T5 sequence: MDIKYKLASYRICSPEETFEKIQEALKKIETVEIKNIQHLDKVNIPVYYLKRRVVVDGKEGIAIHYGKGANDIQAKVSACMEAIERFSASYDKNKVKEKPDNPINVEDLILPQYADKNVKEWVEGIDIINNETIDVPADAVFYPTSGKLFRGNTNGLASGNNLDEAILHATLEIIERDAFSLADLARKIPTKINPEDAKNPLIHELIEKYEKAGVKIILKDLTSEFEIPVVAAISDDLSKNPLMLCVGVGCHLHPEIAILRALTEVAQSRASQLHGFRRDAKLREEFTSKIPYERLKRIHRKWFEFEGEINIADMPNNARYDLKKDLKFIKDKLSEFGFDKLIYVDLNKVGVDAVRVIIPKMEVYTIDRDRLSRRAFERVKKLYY
Kind of assay: fluorescence polarisation.

A further assay has as its target T6, MjYcaO Y66F variant (Methanocaldococcus jannaschii, UniProt Q58494 1-385, Y66F).
T6 sequence: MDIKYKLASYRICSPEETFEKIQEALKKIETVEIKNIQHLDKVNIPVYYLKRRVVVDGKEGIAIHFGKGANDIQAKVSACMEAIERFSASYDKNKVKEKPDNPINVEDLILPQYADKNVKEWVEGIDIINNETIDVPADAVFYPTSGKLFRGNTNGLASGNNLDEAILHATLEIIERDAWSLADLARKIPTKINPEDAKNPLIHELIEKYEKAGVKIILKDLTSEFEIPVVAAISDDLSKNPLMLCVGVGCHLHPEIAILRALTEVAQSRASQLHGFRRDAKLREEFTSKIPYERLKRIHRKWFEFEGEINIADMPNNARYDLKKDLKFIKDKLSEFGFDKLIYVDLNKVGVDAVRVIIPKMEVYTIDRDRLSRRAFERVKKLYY
Kind of assay: fluorescence polarisation.

The next assay concerns the target T7, MjYcaO Y66G variant (Methanocaldococcus jannaschii, UniProt Q58494 1-385, Y66G).
T7 sequence: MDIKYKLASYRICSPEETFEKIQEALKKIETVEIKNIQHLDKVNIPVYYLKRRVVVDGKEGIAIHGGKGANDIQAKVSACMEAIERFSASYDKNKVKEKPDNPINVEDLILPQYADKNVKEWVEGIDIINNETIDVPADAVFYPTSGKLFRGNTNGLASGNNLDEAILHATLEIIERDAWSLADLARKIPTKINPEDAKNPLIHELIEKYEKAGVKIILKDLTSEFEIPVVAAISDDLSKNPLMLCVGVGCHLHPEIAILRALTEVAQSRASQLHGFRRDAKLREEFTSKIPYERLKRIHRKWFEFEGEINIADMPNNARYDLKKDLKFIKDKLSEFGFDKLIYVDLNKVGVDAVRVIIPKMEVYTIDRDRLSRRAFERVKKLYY
Briefly: fluorescence polarisation.

A further assay has as its target T8, MjYcaO W180V variant (Methanocaldococcus jannaschii, UniProt Q58494 1-385, W180V).
T8 sequence: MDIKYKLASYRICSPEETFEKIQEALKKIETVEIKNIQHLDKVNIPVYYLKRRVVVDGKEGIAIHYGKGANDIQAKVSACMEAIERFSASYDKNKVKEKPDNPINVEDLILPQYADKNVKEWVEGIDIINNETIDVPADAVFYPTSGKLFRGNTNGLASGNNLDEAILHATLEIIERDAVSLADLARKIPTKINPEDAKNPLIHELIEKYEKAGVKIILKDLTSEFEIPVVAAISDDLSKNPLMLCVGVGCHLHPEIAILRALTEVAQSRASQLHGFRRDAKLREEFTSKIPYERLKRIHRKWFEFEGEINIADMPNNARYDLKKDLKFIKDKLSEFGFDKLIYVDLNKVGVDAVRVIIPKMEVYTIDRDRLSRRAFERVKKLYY
Kind of assay: fluorescence polarisation.

A further assay has as its target T9, MjYcaO Y66A variant (Methanocaldococcus jannaschii, UniProt Q58494 1-385, Y66A).
T9 sequence: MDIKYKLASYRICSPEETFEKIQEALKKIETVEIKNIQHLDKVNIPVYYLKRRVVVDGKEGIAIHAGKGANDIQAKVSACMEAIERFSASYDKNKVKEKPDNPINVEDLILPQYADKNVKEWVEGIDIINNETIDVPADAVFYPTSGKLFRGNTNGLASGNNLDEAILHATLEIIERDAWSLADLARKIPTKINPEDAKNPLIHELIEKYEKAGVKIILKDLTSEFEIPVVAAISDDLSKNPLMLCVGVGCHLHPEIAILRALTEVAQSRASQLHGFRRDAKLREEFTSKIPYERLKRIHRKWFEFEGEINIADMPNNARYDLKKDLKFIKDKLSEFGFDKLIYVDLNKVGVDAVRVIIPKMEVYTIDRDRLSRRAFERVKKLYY
Briefly: fluorescence polarisation.

For the molecule “MBP-tagged MjMcrA peptide, F(-2)A variant”, the fold increase in Ki against the wild-type peptide in assay [1] worked out at 3 fold.

In assay [1], MjMcrA Y(+1)S 11-mer peptide yielded a fold increase in Ki against the wild-type peptide of 2 fold.

In assay [1], MjMcrA Y(+1)C 11-mer peptide … registered a fold increase in Ki against the wild-type peptide of 2 fold.

In assay [1], “MBP-tagged MjMcrA peptide, Leu(-4) to Ala” displayed a fold increase in Ki against the wild-type peptide greater than 6 fold.

With RLGFYGCDLQD [Y(+1)C 11-mer], the “increase in Ki relative to wild-type” value at MjYcaO [2] turned out to be 2 fold. Besides, the cyclodehydration entry in the assay with MkYcaO is recorded as “enzyme-dependent conversion to the dehydrated species”. At MjYcaO [3], the “cyclodehydration (change of peptide mass)” value is recorded as “almost no change”.

“MBP-tagged MjMcrA peptide, D(+2)A variant” returned a fold increase in Ki against the wild-type peptide in assay [1] of 4 fold.

In assay [1], “MBP-tagged MjMcrA peptide, Gly(-3) to Ala” gave a fold increase in Ki against the wild-type peptide greater than 6 fold.

Regarding RLGFYGYDLQD [MjMcrA 11-mer peptide RLGFYGYDLQD], in assay [4], the binding result is “binds”.

As for RLGFYGYDLQD (not fully specified (N-terminus); also: FITC label (site not given here)) [FITC-labeled 11-mer MjMcrA peptide RLGFYGYDLQD (without the double Gly linker)], the binding result in assay [5] is recorded as “binds”.

Consider GGRLGFYGYDLQD (not fully specified (N-terminus); also: FITC label (site not given here)) [FITC-labeled 13-mer MjMcrA peptide GG-RLGFYGYDLQD], for which the binding result (in assay [6]; in the assay with MjYcaO Y66L variant; with MjYcaO W303A variant; in the assay with MjYcaO W180F variant; in the assay with MjYcaO Y66F variant; with MjYcaO Y66G variant) was “binds” each time. Besides, the binding result with MjYcaO W180V variant and in the assay with MjYcaO Y66A variant was “binds” in each case.
